Data: PMC6860926 (Journal of the American Chemical Society, 2019)

Biological target: human GLP-1 receptor (GLP-1R), stably expressed in FlpIn CHO cells (human) (UniProt P43220)
Chain of UniProt P43220 (P43220 24-463): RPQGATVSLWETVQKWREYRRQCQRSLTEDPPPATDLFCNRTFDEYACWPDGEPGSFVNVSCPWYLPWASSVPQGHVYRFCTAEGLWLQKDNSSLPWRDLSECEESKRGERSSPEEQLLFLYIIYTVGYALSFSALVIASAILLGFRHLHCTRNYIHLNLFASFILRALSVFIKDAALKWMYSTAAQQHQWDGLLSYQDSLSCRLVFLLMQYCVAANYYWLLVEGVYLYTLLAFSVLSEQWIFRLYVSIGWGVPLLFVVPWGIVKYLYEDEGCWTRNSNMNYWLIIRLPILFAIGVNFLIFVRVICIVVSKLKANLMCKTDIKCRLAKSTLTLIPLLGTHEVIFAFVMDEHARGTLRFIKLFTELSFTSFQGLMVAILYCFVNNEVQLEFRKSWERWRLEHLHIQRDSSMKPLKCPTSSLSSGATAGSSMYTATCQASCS

**Q.** Which cAMP accumulation in FlpIn CHO cells stably expressing human GLP-1R, pEC50 does the source give for glucagon-like peptide-1 [GLP-1(7–37)] here?
**A.** 10.8
